Laboratory results as given in the DeepSol protein solubility set.

assay: soluble on expression in E. coli; label from the status in PepcDB or PDB records

| Sequence | soluble on expression in E. coli |
| --- | --- |
| MPAILSRVAPRTFNLVGSRLMASAARLETVPREEIHKEYDRKKTFYHRDLEIQLAGPTQLKTKPLDPTKLKFGHTYADYMMTCDWDAERGWHHPKIEPIGELKIHPGAKVLHYASELFEGMKAYRGIDNKIRMFRPEMNMARMKRTALRAALPDFDSEEMINVLTELLRLDQEWVPNSDVCSLYLRPTLIGTDPTLGVGCATEAKMFVITGPVGAYYSTGFQPVSLLADSRFIRAFPGGVGAYKMGCNYAPTIWVGKEAASKNCQQVLWLYGENEDLTEVGTMNIFLFWKNEEGDMELITPPLHRGLILPGVTRDSLLELGREWGEYKVTERTLNMEEVKKALSEKRLYEMFGSGTACVVSPVGKILYHNKVTDEYEELHIPTMSSKFGVMQKFYNTINDIQYGRIIKDGWMRDI | not soluble |
| MPANARSHAVLTTESKVTIRGQTTIPAPVREALKLKPGQDSIHYEILPGGQVFMCRLGDEQEDHTMNAFLRFLDADIQNNPQKTRPFNIQQGKKLVAGMDVNIDDEIGDDE | soluble |
| MPAPLWSPSAERIAASRMEAFRRFVNQRHALGLVDYPALHAWSVQRREAFWQAIVDFFEVRFQQPPRAVLEEGAQMPSARWFPGATLNFAEHLLRRRDDAPALIAVSEDGRREVLSHAELARHVAGLQKRLAALGIGPGDRVAALMPNTWQTVVGMLATASLGATWSSCSPDFGTQGVIDRFGQIEPRVLIACAGYRYAGKSLDLTAKLNEVLAGLPGLEQLLVVPYDRPQAQPQDYRCQAQVALWDGFYQAEGEPVFTPVPFEQPLYILYSSGTTGVPKCIVHATGGVLLQHLKEHGLHTDLGDGDRLFYYTTCGWMMWNWLASGLAVGASLVLYDGSPFHPGPERLLDLIDAEDIAVFGASAKYLAALEKAGMRPRHSHRLDSLRTLLSTGSPLAHESFDYVYRELKSDLCLSSISGGTDIVSCFAIGNPVLPVWRGELQCKALGMAVEIWDDDGRRLASGKGELVCTRHFPSIPLGFWNDPDGTRFHDAYFASFPGVWAHGDYAEETVHGGLVIHGRSDAVLNPGGVRIGTAEIYRQVEKVEEVLESIAIGQDWQGDVRVLLFVRLRDGVRLDEPLRERIRQTIRANATPRHVPAKIIQVADIPRTLSGKIVELAVRNVIHGRPVKNTDALANPQALELYRDLAEL | not soluble |
| MPASEDYEGQVPAWCPGCGNFQILSTIKQALAELGIEPREVLLVSGIGQAGKLPHYIKCHTFNGLHGRTLPVATAAKLANHSLHVIAVAGDGDCYAEGGNHFLHAIRRNPNISLFVHNNQIYGLTKGQASPTSAKGTHTPAQPFGYLAHPFNPLALAISQDCSFVARGFAGDQEHLKELIKAAITHRGFSLLDILQPCVTFNKVNTFKWYRERVYRLESDYDPYNQTKAFEKALEWGDKIPNGIFYKSDKETLEEMMPTLHEMPLVRKKFSPEDVKHEIEKFY | not soluble |
| MPASQIKSAVTSPLLPQSPSLFEKYPRPHKKLKQLHWEKLDCTDNSIWGTGKAEKFADDLYEKGVLADLEKAFAAREIKSLASKRKEDLQKITFLSRDISQQFGINLHMYSSLSVADLVKKILNCDRDFLQTPSVVEFLSKSEIIEVSVNLARNYAPYSTDWEGVRNLEDAKPPEKDPNDLQRADQIYLQLMVNLESYWGSRMRALTVVTSYEREYNELLAKLRKVDKAVSALQESDNLRNVFNVILAVGNFMNDTSKQAQGFKLSTLQRLTFIKDTTNSMTFLNYVEKIVRLNYPSFNDFLSELEPVLDVVKVSIEQLVNDCKDFSQSIVNVERSVEIGNLSDSSKFHPLDKVLIKTLPVLPEARKKGDLLEDEVKLTIMEFESLMHTYGEDSGDKFAKISFFKKFADFINEYKKAQAQNLAAEEEERLYIKHKKIVEEQQK | soluble |
| MPCSFAPGFLALTVAIHPGTTAQPSQQSPRAFPFFRPVLAQLMKHRVAQESTRRWLDRIIQIIKYAYCQKLRRHFCQATLWKMIQLIVNGQSQLVPSPDSGTDSGTTNDARLNIRQLLEHMGLQGKRIAVERNGEIVPRSQFDQPMLASGDKLEIVVAVGGGLEHHHHHH | not soluble |
| MPDAVVIGAGPNGLVAANLLADAGWSVTVLEEQDEPGGAVRHDNGVDPDFTTDLFSSFYPLAAASPVLAGLHLEREGLRWSHAPRVLAHPLSDGRCAVLGRDLDDTAASLDTFADGDGAAWRELHDVWERLRPDLLDALFTPFPPVRAGARLAARLRAGGGLRLARSLVLPVRRLGEEEFRGEGGRLLLAGNALHADLAPEAAGSGGFGWLMSMLGQTYGFPVPVGGSGALTSALTQRLHRRGGVLRCGQRVSEVVVRQGRAVAVRTAGGETVPARRAVLADVSVPALYGTLVGSAHLPAQVLADLRRFQWDFATFKVDWALDGPVPWQADAASAAGTVHLADGVDELTRFAAQIAMRQVPDRPFALFGQMTTADATRSPEGTEAAWAYTHVPHRIAGDAGDAGLAGTWDAREQELMADRVERQVERFAPGFRSLIRARRILAPPTLQSLNANLYGGAINGGTTALHQQLVFRPIPGTGRPETPVANLFLASAGAHPGGGVHGAPGANAARAALRKHLPSGLTRAQRLLTRRNRKGERDTGFGGLEHHHHHH | not soluble |
| MPDEAVDGSTPDQGKKNNNGRGRGQGSGGNRGRGGSTANNNASRRPNPARQNQSSRQPTKVDMKKYERMISAAHTNFSDIPCGQKSIDCDICCKKNDVFGIGSCRHPVCAECVIRMRILGNSKTCPVCRSDIDILSFCTTDDDLANVPLSFKKTAHPDEDRYDIRFSNKIAGTKYEKYLAHVCKICKTDDGERLEFPSFMSLRQHMASRHEQSYCHICTDNLNLFSRERKTYTRDQLQRHMRSGDFDDKSFKGHPQCLFCEQKFLDEENRYRHLRKDHFFCQFCESDGTMTNVFFGKHDGLKKHYKEHHYICETEECREMGIAFANKFELDLHRANEHAERRNLIELGFGQRPSDPGRPIGRGRGLRSNEPPPPPVPRERIAVVQRQVETNPQSDPSQFTTVRSAQSKGVFTSTRSAYTSNQQEFPSLAPQAPPPNVRSSEFPRLNKANKPAAPAAPAVVDHFPSLGDSSSSSSAPPLRIKVPPLVKKRQPPPPAPAPQKAKASSARQNAPREEDDEYISRRDVPQAVVKVNNSLLRFDTVDDRVIPQNAKSNIQMIQRVDQKSAAESSSSAPSSGRLDFPALPAASAPMMPANSSWLNSKNSKIKSGVISSVSVPANYSKATQNKNKKKNKISVPKTEVWSSLGPPPDSAVASVPVETWQDIPLSKEAQLEKEKRERKEDWARKKAEIQARVAAASKDKSNEVDSDSEPEPARPITPPVHHSNIEKSESSEWTMANSKSGDSLKNAQLMANQKKNKKNKNNMEIPSANKVPSSQSSIVPSAPKVDSLIVEKVVAKTEPKNDENQDKPDLWNMPKLPSMTSMFSSFSLSGMFGMGTSYSDSSSMAAPPPGLENVVLTPPPGLGFPSPKSDDISFASAPILSHDDVKAKRERLEAEKQKNQKEAEKEDDGWVTTSKPKNNKKNNKK | not soluble |
| MPDGQRVTKRSEDSRYFTVQPADTPGMANAQGYLPAHDAAGFDKRLDAIAATVCPNDPRTPDQRRADALGALGRYRDTLDCQCGREDCTAVAERDAVNNAMIHVLAEQSTLDGGNEPGYLPGFGMLPAHMVREVAKTATTKPVTIPKDKAQSGYRPNAELTEFIRWRDLTCRFPGCDAPAMAADIDHTRPLEHHHHHH | soluble |
| MPDIFQQEARGWLRCGAPPFAGAVAGLTTKHGGESKGPFASLNMGLHVGDDRTDVVNNRRRLAEWLAFPLERWVCCEQVHGADIQKVTKSDRGNGAQDFATAVPGVDGLYTDEAGVLLALCFADCVPIYFVAPSAGLVGLAHAGWRGTAGGIAGHMVWLWQTREHIAPSDIYVAIGPAIGPCCYTVDDRVVDSLRPTLPPESPLPWRETSPGQYALDLKEANRLQLLAAGVPNSHIYVSERCTSCEEALFFSHRRDRGTTGRMLAFIGRREEWT | soluble |
| MPDRTTDDFGPFTEQIRGTIDGMGTAEFDALPVGAIQVDGSGVIHRYNRTESRLSGRIPERVIGRNFFTEVAPCTNIPAFSGRFMDGVTSGTLDARFDFVFDFQMAPVRVQIRMQNAGVPDRYWIFVRK | soluble |
| MPDSPTPGRRERKKAATRQAIADAALQLFLEHGFDRVSVRDVAERADVSTTTLFAHFPSKESLVFDREQEVDAALAAAVRERPDGQGVVEALRAHALESWVPIVTDPRRARFTALVSDTPALREYSERMWMRHADTLSTVIAEELDREPDDSACAALARFVLEIPALTTGRHDPRATVETVFDLLLHGWRSQAGPRPPQADGR | not soluble |
